Assay results as given in patent US20120237496.
Changes are numbered by the printed parent chain.

T1: Peptide-13 (not fully specified)
T1 chain: CRPPGFSPFRK

T2: Peptide-6a
T2 chain: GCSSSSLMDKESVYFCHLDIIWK

T3: Peptide-5 (not fully specified)
T3 chain: CDRVYIHPFHLK

T4: Peptide-8 (not fully specified)
T4 chain: CQLYENKPRRPYILK

T5: Peptide-6b
T5 chain: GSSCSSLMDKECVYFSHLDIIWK

T6: Peptide-3
T6 chain: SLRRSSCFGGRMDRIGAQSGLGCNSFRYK

B1: C8 (protein)
chain: YPYDVPDYAYPYDVPDYAYPYDVPDYAGSYDDGICKSSDCIKSAARLIQNMDATTEPCTDFFKYACGGWLKRNVIPETSSRYGNFDILRDELEVVLKDVLQEPKTEDIVAVQKAKALYRSCINESAIDSRGGEPLLKLLPDIYGWPVATENWEQKYGASWTAEKAIAQLNSKYGKKVLINLFVGTDDKNSVNHVIHIDQPRLGLPRGDYYECTGIYKEACTAYVDFMISVARLIRQEERLPIDENQLALEMNKVMELEKEIANATAKPEDRNDPMLLYNKMTLAQIQNNFSLEINGKPFSWLNFTNEIMSTVNISITNEEDVVVYAPEYLTKLKPILTKYSARDLQNLMSWRFIMDLVSSLSRTYKESRNAFRKALYVTTSETATWRRCANYVNGNMENAVGRLYVEAAFAGESKHVVEDLIAQIREVFIQTLDDLTWMDAETKKRAEEKALAIKERIGYPDDIVSNDNKLNNEYLELNYKEDEYFENIIQNLKFSQSKQLKKLREKVDKDEWISGAAVVNAFYSSGRNQIVFPAGILQPPFFSAQQSNSLNYGGIGMVIGHEITHGFFDNGRNFNKDWDLVDWWTQQSASNFKEQSQCMVYQYGNFSWDLAGGQHLNGINTLGENIADNGGLGQAYRAYQNYIKKNGEEKLLPGLDLNHKQLFFLNFAQVWCGTYRPEYAVNSIKTDVHSPKNFRIIGTLQNSAEFSEAFHCRKNSYMNPEKKCRVW
B2: C13 (protein)
chain: B1 chain with R206S, F226L, E398M, F569M, W579V
B3: C18 (protein)
chain: B1 chain with R206S, E398M, F569M, G572V
B4: C10 (protein)
chain: B1 chain with G207R, F226L, E398M, F569M, G572V, F575P, W579D
B5: C16 (protein)
chain: B1 chain with R206S, E398M, F569M, G572V, F575P
B6: C14 (protein)
chain: B1 chain with R206S, F226L, E398M, F569M, W579D
B7: C17 (protein)
chain: B1 chain with R206S, E398M, F569M, G572V, F575P, W579G
B8: C9 (protein)
chain: B1 chain with F569M, G572V, W579L
B9: C12 (protein)
chain: B1 chain with G207R, F226L, F569M, W579V
B10: C19 (protein)
chain: B1 chain with R206S, E398M, F569M, F575P, W579L
B11: C15 (protein)
chain: B1 chain with R206S, E398M, F569M, G572V, W579D
B12: C11 (protein)
chain: B1 chain with G207R, F226L, E398M, F569M, F575P

Molecular target: T1, Peptide-13

Protein	kapp ratio vs G399V/G714K (B1)
B1	0.43 fold
B2	0.39 fold
B3	0.5 fold
B4	0.68 fold
B5	0.44 fold
B6	0.71 fold
B7	0.49 fold
B8	0.52 fold
B9	0.83 fold
B10	0.33 fold
B11	0.44 fold
B12	0.61 fold

Molecular target: T2, Peptide-6a

Protein	kapp ratio vs G399V/G714K (B1)	activity relative to G399V/G714K (B1)
B1	0.32 fold	
B2	0.3 fold	
B3	0.36 fold	
B4	0.27 fold	0.28 fold
B5	0.35 fold	
B6	0.3 fold	
B7	0.47 fold	
B8	0.31 fold	
B9	0.32 fold	
B10	0.29 fold	
B11	0.46 fold	
B12	0.28 fold	

Molecular target: T3, Peptide-5

Protein	kapp ratio vs G399V/G714K (B1)	activity relative to G399V/G714K (B1)
B1	0.27 fold	
B2	0.18 fold	
B3	0.16 fold	
B4	0.17 fold	0.08 fold
B5	0.21 fold	
B6	0.2 fold	
B7	0.27 fold	
B8	0.22 fold	
B9	0.26 fold	
B10	0.15 fold	
B11	0.25 fold	
B12	0.19 fold	

Molecular target: T4, Peptide-8

Protein	kapp ratio vs G399V/G714K (B1)
B1	0.36 fold
B2	0.35 fold
B3	0.73 fold
B4	0.34 fold
B5	0.4 fold
B6	0.43 fold
B7	0.33 fold
B8	0.46 fold
B9	0.43 fold
B10	0.29 fold
B11	0.52 fold
B12	0.35 fold

Molecular target: T5, Peptide-6b

Protein	kapp ratio vs G399V/G714K (B1)
B1	0.24 fold
B2	0.18 fold
B3	0.26 fold
B4	0.19 fold
B5	0.23 fold
B6	0.24 fold
B7	0.33 fold
B8	0.21 fold
B9	0.18 fold
B10	0.19 fold
B11	0.24 fold
B12	0.11 fold

Molecular target: Peptide-7

Protein	kapp ratio vs G399V/G714K (B1)	activity relative to G399V/G714K (B1)
B1	0.69 fold	
B2	0.36 fold	
B3	0.67 fold	
B4	0.49 fold	0.68 fold
B5	0.7 fold	
B6	0.59 fold	
B7	0.57 fold	
B8	0.52 fold	
B9	0.84 fold	
B10	0.34 fold	
B11	0.75 fold	
B12	0.66 fold	

Molecular target: T6, Peptide-3

Protein	kapp ratio vs G399V/G714K (B1)
B1	0.24 fold
B2	0.24 fold
B3	0.24 fold
B4	0.24 fold
B5	0.24 fold
B6	0.24 fold
B7	0.24 fold
B8	0.24 fold
B9	0.24 fold
B10	0.24 fold
B11	0.24 fold
B12	0.24 fold

Molecular target: Peptide-1

Protein	kapp ratio vs G399V/G714K (B1)	activity relative to G399V/G714K (B1)
B1	1.86 fold	
B2	1.78 fold	
B3	2.56 fold	
B4	2.35 fold	2.05 fold
B5	2.24 fold	
B6	1.98 fold	
B7	3.28 fold	
B8	2.33 fold	
B9	2.11 fold	
B10	2.33 fold	
B11	2.52 fold	
B12	2.19 fold	

Molecular target: Peptide-4

Protein	kapp ratio vs G399V/G714K (B1)	activity relative to G399V/G714K (B1)
B1	1.17 fold	
B2	0.91 fold	
B3	0.59 fold	
B4	0.8 fold	0.83 fold
B5	0.7 fold	
B6	0.72 fold	
B7	0.7 fold	
B8	0.67 fold	
B9	0.79 fold	
B10	0.67 fold	
B11	0.7 fold	
B12	0.49 fold	

Molecular target: Peptide-2

Protein	kapp ratio vs G399V/G714K (B1)	activity relative to G399V/G714K (B1)
B1	1.64 fold	
B2	1.56 fold	
B3	2.29 fold	
B4	2.6 fold	2.39 fold
B5	2.19 fold	
B6	2.01 fold	
B7	3.13 fold	
B8	2.44 fold	
B9	2.04 fold	
B10	2.34 fold	
B11	2.72 fold	
B12	2.14 fold	
